This data set in a line: total protein half-life in vivo (active degradation + dilution); higher = more stable protein.
Setting [1] is: E. coli NCM3722 delta-clpP delta-lon delta-hslV, growth: N-lim chemostat, doubling time 6 h.
[2] abbreviates: E. coli NCM3722 delta-clpP, growth: N-lim chemostat, doubling time 6 h.
Where [3] appears, read: E. coli NCM3722 delta-hslV, growth: N-lim chemostat, doubling time 6 h.
Setting [4] is: E. coli NCM3722 delta-lon, growth: N-lim chemostat, doubling time 6 h.
[5] abbreviates: E. coli NCM3722 delta-smpB, growth: N-lim chemostat, doubling time 6 h.
[6] abbreviates: wild type E. coli NCM3722, growth: C-lim chemostat, doubling time 3 h.
The mark [7] stands for this setting: wild type E. coli NCM3722, growth: C-lim chemostat, doubling time 6 h.
Where [8] appears, read: wild type E. coli NCM3722, growth: C-lim chemostat, doubling time 12 h.
[9] abbreviates: wild type E. coli NCM3722, growth: N-lim chemostat, doubling time 6 h.
Setting [10] is: wild type E. coli NCM3722, growth: N-lim chemostat, doubling time 12 h.
The mark [11] stands for this setting: wild type E. coli NCM3722, growth: P-lim chemostat, doubling time 6 h.
[12] abbreviates: wild type E. coli NCM3722, growth: P-lim chemostat, doubling time 12 h.

± gives the standard deviation of the averaged measurements.

Turning to “MSTTWFVGADWLAEHIDDPEIQIIDARMASPGQEDRNVAQEYLNGHIPGAVFFDIEALSDHTSPLPHMLPRPETFAVAMRELGVNQDKHLIVYDEGNLFSAPRAWWMLRTFGVEKVSILGGGLAGWQRDDLLLEEGAVELPEGEFNAAFNPEAVVKVTDVLLASHENTAQIIDARPAARFNAEVDEPRPGLRRGHIPGALNVPWTELVREGELKTTDELDAIFFGRGVSYDKPIIVSCGSGVTAAVVLLALATLDVPNVKLYDGAWSEWGARADLPVEPVK”, the “total protein half-life in vivo” value turned out to be 4.69 ± 0.49 h under setting [1]; 3.98 ± 0.5 h under setting [2]; 4.63 ± 0.66 h under setting [3]; 6.38 ± 2 h under setting [4]; 3.69 ± 0.23 h under setting [5]; 3.13 ± 0.094 h under setting [6]. Besides, the “total protein half-life in vivo” value under setting [7] worked out at 5.74 ± 0.92 h; the “total protein half-life in vivo” value under setting [8] was 9.46 ± 0.71 h; the “total protein half-life in vivo” value under setting [9] turned out to be 4.51 ± 0.59 h; the “total protein half-life in vivo” value under setting [10] amounted to 6.87 ± 0.19 h; the “total protein half-life in vivo” value under setting [11] was found to be 5.58 ± 0.12 h; the “total protein half-life in vivo” value under setting [12] was determined as 11 ± 0.56 h.
For the sequence “MIFLMTKDSFLLQGFWQLKDNHEMIKINSLSEIKKVGNKPFKVIIDTYHNHILDEEAIKFLEKLDAERIIVLAPYHISKLKAKAPIYFVSRKESIKNLLEITYGKHLPHKNSQLCFSHNQFKIMQLILKNKNESNITSTLNISQQTLKIQKFNIMYKLKLRRMSDIVTLGITSYF”, the “total protein half-life in vivo” value amounted to 4.62 ± 0.1 h under setting [1]; 3.05 ± 0.11 h under setting [2]; 1.91 ± 0.33 h under setting [3]; 1.03 ± 0.022 h under setting [4]; 3.52 ± 0.093 h under setting [5]; 2.29 ± 0.07 h under setting [9]. For the same sequence, the “total protein half-life in vivo” value reads like this: under setting [10], 3.82 ± 0.15 h; under setting [11], 2.34 ± 0.054 h; under setting [12], 6.16 ± 0.74 h.
For “MKRMIALDGAQGEGGGQILRSALSLSMITGQPFTITSIRAGRAKPGLLRQHLTAVKAATEICGATVEGAELGSQRLLFRPGTVRGGDYRFAIGSAGSCTLVLQTVLPALWFADGPSRVEVSGGTDNPSAPPADFIRRVLEPLLAKIGIHQQTTLLRHGFYPAGGGVVATEVSPVASFNTLQLGERGNIVQMRGEVLLAGVPRHVAEREIATLAGSFSLHEQNIHNLPRDQGPGNTVSLEVESENITERFFVVGEKRVSAEVVAAQLVKEVKRYLASTAAVGEYLADQLVLPMALAGAGEFTVAHPSCHLLTNIAVVERFLPVRFSLIETDGVTRVSIE”, the “total protein half-life in vivo” value is, setting by setting: under setting [1], 5.12 ± 0.25 h; under setting [2], 4.65 h; under setting [3], 5.05 h; under setting [4], 4.457 ± 0.014 h; under setting [5], 4.17 ± 0.09 h; under setting [6], 2.59 h. The “total protein half-life in vivo” value is, setting by setting: under setting [7], 5.6 ± 0.12 h; under setting [8], 11.3 ± 1.7 h; under setting [9], 4.52 ± 0.4 h; under setting [11], 5.28 ± 0.24 h; under setting [12], 10.9 h.
Regarding “MLKSPLFWKMTSLFGAVLLLLIPIMLIRQVIVERADYRSDVEDAIRQSTSGPQKLVGPLIAIPVTELYTVQEEDKTVERKRSFIHFWLPESLMVDGNQNVEERKIGIYTGQVWHSDLTLKADFDVSRLSELNAPNITLGKPFIVISVGDARGIGVVKAPEVNGTALTIEPGTGLEQGGQGVHIPLPEGDWRKQNLKLNMALNLSGTGDLSVVPGGRNSEMTLTSNWPHPSFLGDFLPAKREVSESGFQAHWQSSWFANNLGERFASGNDTGWENFPAFSVAVTTPADQYQLTDRATKYAILLIALTFMAFFVFETLTAQRLHPMQYLLVGLSLVMFYLLLLALSEHTGFTVAWIIASLIGAIMNGIYLQAVLKGWCNSMLFTLALLLLDGVMWGLLNSADSALLLGTSVLVVALAGMMFVTRNIDWYAFSLPKMKASKEVTTDDELRIWK”, the “total protein half-life in vivo” value is, setting by setting: under setting [10], 1.65 h; under setting [11], 3.18 ± 0.29 h; under setting [12], 5.81 ± 0.98 h.
On to “MSQVQSGILPEHCRAAIWIEANVKGEVDALRAASKTFADKLATFEAKFPDAHLGAVVAFGNNTWRALSGGVGAEELKDFPGYGKGLAPTTQFDVLIHILSLRHDVNFSVAQAAMEAFGDCIEVKEEIHGFRWVEERDLSGFVDGTENPAGEETRREVAVIKDGVDAGGSYVFVQRWEHNLKQLNRMSVHDQEMVIGRTKEANEEIDGDERPETSHLTRVDLKEDGKGLKIVRQSLPYGTASGTHGLYFCAYCARLHNIEQQLLSMFGDTDGKRDAMLRFTKPVTGGYYFAPSLDKLMAL”, for which the “total protein half-life in vivo” value under setting [1] came to 3.34 ± 0.63 h; the “total protein half-life in vivo” value under setting [2] amounted to 3.25 ± 0.84 h; the “total protein half-life in vivo” value under setting [3] is 3.36 ± 0.15 h; the “total protein half-life in vivo” value under setting [4] is 3.73 ± 0.79 h; the “total protein half-life in vivo” value under setting [5] is 3.14 ± 0.27 h; the “total protein half-life in vivo” value under setting [6] amounted to 2.96 ± 0.12 h. The “total protein half-life in vivo” value is, setting by setting: under setting [8], 8.52 ± 2.9 h; under setting [9], 3.18 ± 0.17 h; under setting [10], 4.17 ± 0.094 h; under setting [11], 5.09 ± 0.12 h; under setting [12], 9.66 ± 0.84 h.
For “MQRETVWLVEDEQGIADTLVYMLQQEGFAVEVFERGLPVLDKARKQVPDVMILDVGLPDISGFELCRQLLALHPALPVLFLTARSEEVDRLLGLEIGADDYVAKPFSPREVCARVRTLLRRVKKFSTPSPVIRIGHFELNEPAAQISWFDTPLALTRYEFLLLKTLLKSPGRVWSRQQLMDSVWEDAQDTYDRTVDTHIKTLRAKLRAINPDLSPINTHRGMGYSLRGL”, the “total protein half-life in vivo” value is 5.69 ± 1.5 h under setting [1]; 4.02 ± 0.41 h under setting [2]; 3.55 h under setting [3]; 4.49 ± 0.45 h under setting [4]; 3.92 h under setting [5]; 2.74 ± 0.18 h under setting [6]. Moreover, the “total protein half-life in vivo” value worked out at 4.86 ± 0.057 h under setting [7]; 11.5 ± 3.6 h under setting [8]; 3.99 h under setting [9]; 6.73 ± 0.16 h under setting [10]; 4.04 h under setting [11]; 7.89 ± 0.58 h under setting [12].
Take “MTTPTFDTIEAQASYGIGLQVGQQLSESGLEGLLPEALVAGIADALEGKHPAVPVDVVHRALREIHERADAVRRQRFQAMAAEGVKYLEENAKKEGVNSTESGLQFRVINQGEGAIPARTDRVRVHYTGKLIDGTVFDSSVARGEPAEFPVNGVIPGWIEALTLMPVGSKWELTIPQELAYGERGAGASIPPFSTLVFEVELLEIL [P0A9L3]”: the “total protein half-life in vivo” value reads like this: under setting [1], 4.93 ± 0.29 h; under setting [2], 4.54 ± 0.58 h; under setting [3], 3.72 ± 0.16 h; under setting [4], 5 ± 0.44 h; under setting [5], 3.45 ± 0.19 h; under setting [6], 3.06 ± 0.2 h. Also, the “total protein half-life in vivo” value came out at 5.67 ± 0.37 h under setting [7]; 10.4 ± 0.65 h under setting [8]; 3.59 ± 0.1 h under setting [9]; 5.3 ± 0.15 h under setting [10]; 5.591 ± 0.04 h under setting [11]; 11 ± 0.86 h under setting [12].
“MLNNAMSVVILAAGKGTRMYSDLPKVLHTLAGKAMVQHVIDAANELGAAHVHLVYGHGGDLLKQALKDDNLNWVLQAEQLGTGHAMQQAAPFFADDEDILMLYGDVPLISVETLQRLRDAKPQGGIGLLTVKLDDPTGYGRITRENGKVTGIVEHKDATDEQRQIQEINTGILIANGADMKRWLAKLTNNNAQGEYYITDIIALAYQEGREIVAVHPQRLSEVEGVNNRLQLSRLERVYQSEQAEKLLLAGVMLRDPARFDLRGTLTHGRDVEIDTNVIIEGNVTLGHRVKIGTGCVIKNSVIGDDCEISPYTVVEDANLAAACTIGPFARLRPGAELLEGAHVGNFVEMKKARLGKGSKAGHLTYLGDAEIGDNVNIGAGTITCNYDGANKFKTIIGDDVFVGSDTQLVAPVTVGKGATIAAGTTVTRNVGENALAISRVPQTQKEGWRRPVKKK [P0ACC7]”: the “total protein half-life in vivo” value runs as follows: under setting [1], 6.48 ± 0.94 h; under setting [2], 5.96 ± 1.1 h; under setting [3], 5.08 ± 0.11 h; under setting [4], 5.46 ± 0.28 h; under setting [5], 4.93 ± 0.12 h; under setting [6], 2.92 ± 0.096 h. The “total protein half-life in vivo” value by setting is: under setting [7], 5.9 ± 0.48 h; under setting [8], 11.8 ± 0.66 h; under setting [9], 5.122 ± 0.044 h; under setting [10], 9.31 ± 0.57 h; under setting [11], 5.96 ± 0.37 h; under setting [12], 12.9 ± 0.34 h.
